Assay in all cases: SPR; KD relative to WT C2;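 further: biacore SPR at 37 °C, anti-C2 mAbs captured on an anti-human IgG chip, alanine or serine C2 surface mutants tested, KD from 1:1 fit compared with wild-type C2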
(SPR reads the build-up and loss of mass on a sensor chip optically.)

The target of one assay is T1, human C2 S278A (human, UniProt P06681 21-752).
T1 sequence: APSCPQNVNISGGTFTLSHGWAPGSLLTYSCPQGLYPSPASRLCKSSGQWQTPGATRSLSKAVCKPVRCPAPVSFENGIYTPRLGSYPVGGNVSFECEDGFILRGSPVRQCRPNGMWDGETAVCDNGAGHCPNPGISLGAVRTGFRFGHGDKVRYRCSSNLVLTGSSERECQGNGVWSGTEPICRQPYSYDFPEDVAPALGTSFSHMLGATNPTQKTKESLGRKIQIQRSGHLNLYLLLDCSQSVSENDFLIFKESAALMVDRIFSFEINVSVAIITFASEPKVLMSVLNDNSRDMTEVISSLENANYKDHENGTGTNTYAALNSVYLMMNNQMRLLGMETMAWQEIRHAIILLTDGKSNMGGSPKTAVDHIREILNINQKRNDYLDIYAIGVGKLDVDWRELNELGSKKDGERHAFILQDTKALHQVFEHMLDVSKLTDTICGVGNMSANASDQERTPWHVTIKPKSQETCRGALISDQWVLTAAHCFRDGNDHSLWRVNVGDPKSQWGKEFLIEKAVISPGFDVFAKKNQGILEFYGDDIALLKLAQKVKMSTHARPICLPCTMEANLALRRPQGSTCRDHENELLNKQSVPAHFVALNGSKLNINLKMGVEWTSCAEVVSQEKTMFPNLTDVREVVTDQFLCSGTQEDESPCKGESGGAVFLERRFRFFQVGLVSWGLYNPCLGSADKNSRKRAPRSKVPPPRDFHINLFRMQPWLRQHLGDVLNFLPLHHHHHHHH

The next assay addresses T2, human C2 N424A (human, UniProt P06681 21-752).
T2 sequence: T1 sequence with A258S, N404A

The target of another assay is T3, human C2 V465A (human, UniProt P06681 21-752).
T3 sequence: T1 sequence with A258S, V445A

Another assay concerns the target T4, human C2 A472S (human, UniProt P06681 21-752).
T4 sequence: T1 sequence with A258S, A452S

Where a chain is given by its changes, count along the chain named.

Procedure for human C2 A472S: (§1) Surface plasmon resonance (SPR, Biacore) was used for all binding affinity analyses. In brief, goat anti-human IgG was directly immobilised onto the carboxymethyl dextran surface of CM5 sensorchips to approximately 12,000 RU using standard NHS/EDC chemistry at pH 5. The immobilised antibody surface was pre-conditioned with ten injections of polyclonal human IgG (Privigen 60 s) prepared at 1 μg/mL. Ligands (anti-C2 mAbs) were captured at the beginning of each cycle as described below. An adjacent spot or flow cell in which only Polyclonal IgG was capture was used as a reference surface. The goat anti-human IgG Fc antibody surface was regenerate in 100 mM H3PO4, injected for 45 seconds at the end of each cycle. Experiments were performed at 37° C. and the flow rate of each experiment was kept constant at 30 μL/min.
(§2) Sensogram data was double-referenced against a reference anti-IgG surface (i.e. minus anti-C2 mAb) and blank buffer injections obtained within each experiment. The binding data was fit to 1:1 (kinetic or steady-state) model using local Rmax and null refraction index (RI=0) when appropriate. Buffers and solutions were filtered (0.22 μm) prior to use.
(§3) The C2 mutants were designed to test the importance of surface exposed residues for antibody binding. Residues located at either the N-terminal VWA domain or C-terminal protease domain of C were replaced by either alanine or serine and tested for binding against anti-C2 antibodies.
Procedure for human C2 N424A: as §1, §2, §3
Procedure for human C2 S278A: as §1, §2, §3
Procedure for human C2 V465A: as §1, §2, §3

B1: RF16-214 (antibody, V domains shown)
VH: EVQLLESGGGLVQPGGSLRLSCAASGFTFSWYQMMWVRQAPGKGLEWVSRIYPSGGGTAYADSVKGRFTISRDNSKNTLYLQMNSLRAEDTAVYYCARDAGYGDNWGQGTLVTVSS
VL: QSALTQPPSVSVSPGQTASITCSGDKLGEKYASWYQQKAGQSPVMVIYQDRKRPSGIPERFSGSNSGNTATLTISGTQAMDEADYYCQAWDTRAVVFGGGTKLTVLG
Regarding B1, the Fold diff with human C2 S278A was determined as 1 fold; in the assay with human C2 N424A, 1 fold; with human C2 V465A, 2 fold; with human C2 A472S, 8 fold.
